How the values were obtained:
[1] = biological target: T1, human neutrophil elastase (HNE) (Homo sapiens, UniProt P08246 30-267); assay: enzyme inhibition; conditions: elastin-Congo red, 90% for E6 and E12, ELISA: PBS pH 7.4, 5 mM MgCl2, 10 mM KCl, 0.01% Tween 20, 20 min (temperature not stated), inhibition: 50 mM Tris pH 7.5, 150 mM NaCl, 5 mM MgCl2, 0.
[2] = biological target: T1, human neutrophil elastase (HNE); assay: ELISA; HNE immobilized; ELISA: PBS pH 7.4, 5 mM MgCl2, 10 mM KCl, 0.01% Tween 20, 20 min (temperature not stated); inhibition: 50 mM Tris pH 7.5, 150 mM NaCl, 10 mM KCl, 5 mM MgCl2, 0.02% Tween 20, 37 C; conditions: protein: commercial; for Kd: label: biotin (ELISA)
[3] = biological target: T1, human neutrophil elastase (HNE); assay: enzyme inhibition; DQ gelatin substrate; competitive; ELISA: PBS pH 7.4, 5 mM MgCl2, 10 mM KCl, 0.01% Tween 20, 20 min (temperature not stated); inhibition: 50 mM Tris pH 7.5, 150 mM NaCl, 10 mM KCl, 5 mM MgCl2, 0.02% Tween 20, 37 C; conditions: protein: commercial, label: biotin (ELISA)
[4] = biological target: T1, human neutrophil elastase (HNE); assay: enzyme inhibition; elastin-Congo red, 100 nM HNE; E6/E12 values swapped in a second sentence; ELISA: PBS pH 7.4, 5 mM MgCl2, 10 mM KCl, 0.01% Tween 20, 20 min (temperature not stated); inhibition: 50 mM Tris pH 7.5, 150 mM NaCl, 10 mM KCl, 5 mM MgCl2, 0.02% Tween 20, 37 C; conditions: protein: commercial, label: biotin (ELISA)
[5] = predicted: 1 G4, 3 hairpin loops (not tested)
[6] = predicted: 2 G4, 2 hairpin loops (not tested)

T1 sequence (P08246 30-267): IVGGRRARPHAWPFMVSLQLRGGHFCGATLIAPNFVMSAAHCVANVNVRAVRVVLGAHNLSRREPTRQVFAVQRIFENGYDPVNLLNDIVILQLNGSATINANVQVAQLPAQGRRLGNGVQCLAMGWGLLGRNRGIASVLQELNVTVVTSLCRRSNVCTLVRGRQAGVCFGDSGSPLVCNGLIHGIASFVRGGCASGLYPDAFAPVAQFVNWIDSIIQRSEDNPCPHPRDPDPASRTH

Question: dsDNA 24-mer was tested. Which binding signal [1] did it give?
Answer: 10 % inhibition

B1: NC nonspecific ssDNA (ssDNA)
DNA: CATGCTTCCCCAGGGAGATGAACCCTTTGGGAAACCCTTTGGGAAACCCTTTGGGGAGGAACATGCGTCGCAAAC
Question: Does B1 bind ([2]; label: 5' biotin (ELISA))?
Answer: no binding

B2: aptamer E6 (ssDNA)
DNA: CATGCTTCCCCAGGGAGATGAGGACGGGCGTGGGGATGGGTATGGTGCAACTCCCGAGGAACATGCGTCGCAAAC
Question: What does the source list for B2?
Answer: Kd [2, 5]: 20.5 nM; Ki [3, 5]: 52 ± 6 nM; IC50 [4, 5]: 173 nM

B3: aptamer E12 (ssDNA)
DNA: CATGCTTCCCCAGGGAGATGGGCGTGGGGGTTGGGTATGGTGCTTGAGGGGCCTGGAGGAACATGCGTCGCAAAC
Question: What does the source list for B3?
Answer: Kd [2, 6]: 13.9 nM; Ki [3, 6]: 22 ± 1 nM; IC50 [4, 6]: 178 nM

Source: publication PMC10359491, “Identification and characterization of aptameric inhibitors of human neutrophil elastase”
